From patent publication US12643954B2, “Anti-CD36 antibodies and their use to treat cancer” (ONA Therapeutics, S.L., priority 2020, dated 2026)
Read-outs that look alike come from different tables or passages of the source.

Legend:
HCT-116 cells = experiment: HCT-116 orthotopic mouse model of colon cancer (Example 8); format: in vivo
Protocol: Studies of the effects of the ONA-0-v1 anti-CD36 antibody on colon cancer were performed in BALB/c nude mice (immuno-deficient). The studies included only female mice. All mice were inoculated with commercially available HCT-116 (ATCC) cancer cells, transduced with a retroviral vector expressing luciferase. HCT-116 cells were derived from a human colorectal carcinoma (i.e., from a colon cancer). Prior to inoculation, the HCT-116 cells were cultured in a humidified incubator at 37° C. with 5% CO2, and were grown in McCoy's 5A medium supplemented with 5 μg ml^−1 penicillin/streptomycin and 10% FBS (GIBCO).
For each mouse, 2×10^6 HCT-116 cells were inoculated via orthotopic injection. Each mouse was imaged after inoculation and one week later and liver metastasis were confirmed by ex vivo luminescence prior to start of treatment. Treatment began 14 days after inoculation with the HCT-116 cells. Inoculated mice were divided into one of two treatment groups: vehicle injection control (n=10) or ONA-0-v1 treatment (n=10). Antibody treatments were administered via intraperitoneal (i.p.) injection daily at a dose of 3 mg/kg, while control mice received an equal volume of vehicle on the same schedule. At 7, 14, and 21 days after start of treatment, all mice were imaged via IVIS. Mice were sacrificed at the end of the treatment period (day 25). Upon sacrifice, organs and tissues were collected for performance of necropsy, ex-vivo IVIS, and histopathology.

CD36 = CD36 (Homo sapiens, UniProt P16671); experiment: Surface plasmon resonance (Biacore T200) affinity for human CD36; format: binding; settings: SPR
CD36, sequence (P16671 whole entry): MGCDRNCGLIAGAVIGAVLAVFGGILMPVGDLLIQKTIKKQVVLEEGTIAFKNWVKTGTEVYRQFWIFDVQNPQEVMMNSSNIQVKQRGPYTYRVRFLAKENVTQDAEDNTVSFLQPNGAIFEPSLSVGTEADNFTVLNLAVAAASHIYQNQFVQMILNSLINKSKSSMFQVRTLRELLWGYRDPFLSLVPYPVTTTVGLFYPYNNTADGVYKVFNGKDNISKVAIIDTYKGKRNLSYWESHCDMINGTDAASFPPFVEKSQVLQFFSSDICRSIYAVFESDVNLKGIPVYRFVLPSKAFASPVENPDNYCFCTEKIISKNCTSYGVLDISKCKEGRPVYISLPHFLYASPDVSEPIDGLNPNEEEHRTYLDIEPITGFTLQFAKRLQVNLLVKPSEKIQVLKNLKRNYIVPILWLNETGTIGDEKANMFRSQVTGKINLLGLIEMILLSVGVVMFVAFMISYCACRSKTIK
Protocol: The affinity of ONA-0-v1, 1G04, and a commercial anti-CD36 antibody (JC63.1) for human CD36 was also measured by surface plasmon resonance (SPR) using a Biacore T200. 1G04 was analysed using a protein A capture surface, with a capture range of 100-150 RU and an antigen titration range of 3.3-333 nM. The mouse antibodies ONA-0-V1 and the commercial anti-CD36 antibody were analysed using an anti-mouse IgA capture surface, with a capture range of 160-180 RU and an antigen titration range of 3.3-333 nM. For each single analysis cycle a titration of five antigen concentrations were injected over the captured antibody and then the dissociation of the complex was measured. A double referencing method was employed in which data from the reference surfaces where no antibody was captured (fc 1 and 3 respectively) were subtracted from the antibody bound capture surface (fc 2 and 4). Blank injections of buffer were run for every antigen titration cycle and then subtracted from analyte injection cycles, to correct for small changes in the antibody capture surface density. All analysis was performed at 25° C., and the sample rack was kept at 6° C. during experimental runs. Each experiment was run at least three times with the mean binding constants generated from at least two independent assays reported. All analysis was performed in PBS-T running buffer at 40 μL/min.

OVCAR-3 cells = experiment: OVCAR-3 orthotopic mouse model of ovarian cancer (Example 7); format: in vivo
Protocol: Studies of the effects of the ONA-0-v1 anti-CD36 antibody on ovarian cancer were performed in NSG mice (immuno-deficient). The studies included only female mice. All mice were inoculated with commercially available OVCAR-3 (ATCC) cancer cells. OVCAR-3 cells were derived from a human progressive adenocarcinoma of the ovary (i.e., from an ovarian cancer). Prior to inoculation, the OVCAR-3 cells were cultured in a humidified incubator at 37° C. with 5% CO2, and were grown in RPMI-1640 supplemented with 5 μg ml^−1 penicillin/streptomycin, 0.01 mg/ml bovine inulin and 20% FBS (GIBCO).
For each mouse, a piece of an OVCAR-3 xenograft was implanted orthotopically. […] Mice implanted with OVCAR-3 also develop metastases in both the peritoneal wall and liver.
Treatment of the implanted mice began 23 days after implantation with the OVCAR-3 tumor pieces. Inoculated mice were divided into one of two treatment groups: vehicle injection control (n=9) or ONA-0-v1 treatment (n=9). Antibody treatments were administered via intraperitoneal (i.p.) injection daily at a dose of 3 mg/kg, while control mice received an equal volume of vehicle on the same schedule. Mice were sacrificed at the end of the treatment period. Upon sacrifice, organs and tissues were collected for performance of immunohistochemistry analysis.

mouse CD36 = molecular target: T1, mouse CD36 (Mus musculus, UniProt Q08857); experiment: ELISA binding to plate-coated mouse CD36; settings: recombinant mouse CD36 coated plates
T1 construct: purchased Sino Biological 50422-M08H
T1 sequence (Q08857 30-439 limits assumed): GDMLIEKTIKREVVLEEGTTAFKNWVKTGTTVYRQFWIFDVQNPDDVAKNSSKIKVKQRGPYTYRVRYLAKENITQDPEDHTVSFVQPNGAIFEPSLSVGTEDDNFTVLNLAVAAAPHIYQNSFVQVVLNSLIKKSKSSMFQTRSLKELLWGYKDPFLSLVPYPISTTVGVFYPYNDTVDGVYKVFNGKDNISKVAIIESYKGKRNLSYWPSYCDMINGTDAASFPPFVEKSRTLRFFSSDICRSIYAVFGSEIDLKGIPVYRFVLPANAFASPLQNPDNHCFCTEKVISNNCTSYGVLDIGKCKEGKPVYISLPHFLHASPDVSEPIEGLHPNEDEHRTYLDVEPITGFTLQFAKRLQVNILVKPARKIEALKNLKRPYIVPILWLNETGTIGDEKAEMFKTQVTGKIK
Protocol: To perform ELISA assays, 96-well ELISA plates were coated over night with human CD36 (Sino Biological, reference 10752-H08H) or mouse CD36 (Sino Biological, reference 50422-M08H) recombinant proteins at a concentration of 0.25 mg/ml. After two washes with PBS, plates were blocked with 4% skimmed milk in PBS for 1 hour at 37° C. Blocking solution was discarded and plates were washed five times with 200 μl/well PBS-Tween20 (0.5%). Primary antibodies were either omitted (control blocking solution treatment) or mixed in blocking solution at several dilutions ranging from 0.01 nM to 0.5 μM. The primary antibody solutions were added to the wells and incubated over night at 4° C. After 5 washes with 200 ul/well of PBS-Tween20 (0.5%), plates were incubated for 1 hour at room temperature with a goat anti-mouse HRP-conjugated antibody (Abeam, reference ab97235) diluted 1:2000 in blocking solution. Plates were then washed 5 times with 200 μl/well of PBS-Tween20 (0.5%), incubated with 100 μl/well TMB and detected after 10 minutes, 30 minutes, or 60 minutes with a spectrophotometer at a wave length of 630 nm.

B1: ONA-0-v1: murine IgA anti-CD36 antibody; heavy chain SEQ ID NO: 5, light chain SEQ ID NO: 7 (antibody)
heavy: QVQLKQSGADLVRPGASVKLSCKASGYTFTDYYINWVKQRPGQGLEWIARIYPGSGNTYYNEKFKGKATLTAEKSSSTAYMQLSSLTSEDSAVYFCARGIGGGFGMDYWGQGTSVTVSSESARNPTIYPLTLPPVLCSDPVIIGCLIHDYFPFGTMNVTWGKSGKDITTVNFPPALASGGRYTMSSQLTLPAVECPEGESVKCSVQHDSNPVQELDVNCSPTPPPPITIPSCQPSLSLQRPALEDLLLGSDASITCTLNGLRNPEGAAFTWEPSTGKDAVQKKAAQNSCGCYSVSSVLPGCAERWNSGASFKCTVTHPESGTLTGTIAKVTVNTFPPQVHLLPPPSEELALNELLSLTCLVRAFNPKEVLVRWLHGNEELSPESYLVFEPLKEPGEGATTYLVTSVLRVSAETWKQGDQYSCMVGHEALPMNFTQKTIDRLSGKPTNVSVSVIMSEGDGICY
light: SIVMTQTPKFLLVSAGDRITITCKASQSVSDDVAWYQQKPGQSPKLLIYYASNRYTGVPDRFTGSGYGTDFTFTISTVQAEDLAVYFCQQDYSSPLTFGAGTKLEIKRADAAPTVSIFPPSSEQLTSGGASVVCFLNNFYPKDINVKWKIDGSERQNGVLNSWTDQDSKDSTYSMSSTLTLTKDEYERHNSYTCEATHKTSTSPIVKSFNRNEC
modifications: ONA-0-v1 heavy chain; ONA-0-v1 light chain
With B1 the “in vivo total tumor bioluminescence over time” value (HCT-116 cells; 3 mg/kg i.p. daily, day 21) was “reduced the growth of the tumor”, the “ex vivo luminescence, kidney” value (HCT-116 cells; IVIS at sacrifice) was 1.08*10^6 and the “ex vivo luminescence, liver” value (HCT-116 cells; IVIS at sacrifice) was 9.02*10^7. For the same molecule, the “ex vivo luminescence, lung” value (HCT-116 cells; IVIS at sacrifice) was 1.24*10^6, the “ex vivo luminescence, spleen” value (HCT-116 cells; IVIS at sacrifice) was 1.79*10^8 and the “body weight as percent of starting body weight” value (HCT-116 cells; day 18) was 91.1%. The “ex vivo primary tumor bioluminescence, average radiance” value (HCT-116 cells; day 25) was 1.51*10^10, the “percentage of mice with tumors in their liver” value (HCT-116 cells; ex vivo luminescence) was 60% and the “percentage of mice with tumors in their lungs” value (HCT-116 cells; ex vivo luminescence) was 60%. It also gave a ka (CD36; 1-to-1 model, 25° C.) of 632000 M⁻¹ s⁻¹, a kd (CD36; 1-to-1 model, 25° C.) of 0.00354 s⁻¹ and a ka1 (CD36; 2-state model) of 108000 M⁻¹ s⁻¹. For the same molecule, the ka2 (CD36; 2-state model) was 0.000558 s⁻¹, the kd1 (CD36; 2-state model) was 0.0023 s⁻¹ and the kd2 (CD36; 2-state model) was 0.000393 s⁻¹. The ka2 (CD36; bivalent model) was 6.74E−05 1/RUs, the kd1 (CD36; bivalent model) was 0.00259 s⁻¹ and the kd2 (CD36; bivalent model) was 0.000527 s⁻¹. The ka1 (CD36; bivalent model, first ka1 column) was 33400 M⁻¹ s⁻¹, the Kd (CD36; bivalent model, read-out: KD1) was 77.3 nM and the Kd (CD36; bivalent model, read-out: KD2) was 986 nM. For the same molecule, the “average primary tumor weight” value (OVCAR-3 cells; 3 mg/kg i.p. daily) was 1.058 g, the “decrease of primary tumor weight vs vehicle” value (OVCAR-3 cells; 3 mg/kg i.p. daily) was 43% and the “SR (Sirius red) positive area of primary tumors” value (OVCAR-3 cells; collagenous and fibrotic areas) was 22.5%. The “percent necrosis of primary tumors” value (OVCAR-3 cells; histology, pathologist quantification) was “approximately 40.71%”, the “animals with large metastasis (>5 mm) in the peritoneal wall” value (OVCAR-3 cells; macroscopic analysis) was “no large metastasis were detected” and the “animals with no metastasis in the peritoneal wall” value (OVCAR-3 cells; macroscopic analysis) was 63%. The “animals with small metastasis (1-2 mm) in the peritoneal wall” value (OVCAR-3 cells; macroscopic analysis) was 38%, the large liver metastasis (OVCAR-3 cells; macroscopic analysis) was 6% and the “mice without metastasis in the liver” value (OVCAR-3 cells; macroscopic analysis) was 50%. For the same molecule, the small liver metastasis (OVCAR-3 cells; macroscopic analysis) was 44% and the “binding to mouse CD36 in ELISA” value (mouse CD36) was “able to specifically bind”.
